# In the nanobody polyreactivity screen of Harvey et al. (2022):
# Experiment: yeast display, Sf9 membrane polyspecificity reagent, FACS + sequencing; frameworks hold sequencing errors
# Method in brief: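 Nanobodies from a synthetic yeast display library (Saccharomyces cerevisiae BJ5465), induced 36–48 hours with galactose, were stained 1 hour at 4 °C with 10% biotinylated, detergent-solubilized Sf9 membrane reagent, enriched on streptavidin microbeads, then FACS-sorted. Anti-HA (expression) and streptavidin (reagent binding) fluorescence set low and high (top ~1%) gates. Polyreactivity labels come from the gate of origin. Genes were colony-PCR amplified, MiSeq 2 × 250 sequenced and filtered by CDR length.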
row,Sequence,polyreactivity (PSR sort gate)
1,QVQLVESGGGLVQAGGSLRLSCAASGYIFYDNAMGWYRQAPGKERELVAAISASGGDTYYADSVKGRFTISRDNAKNTVYLQMNSLKPEDTAVYYCAADLITYAMEFWGQGTQVTVSS,low polyreactivity
2,QVQLVESGGGLVQAGGSLRLSCAASGRILGDYAMGWYRQAPGKEREFVAAIDYNGGSTNYADSVMGRFTISRDNAKNTVYLQMNSLKPEDTAVYYCAKTDGFYRGYGYWGQGTQVTVSS,low polyreactivity
3,QVQLVESGGGLVQAGGSLRLSCAASGLIFLHNAMGWYRQAPGKERELVAAIRDGDSTNYADSVKGRFTISRDNAKNTVYLQMNSLKPEDTAVYYCAKDPTLVAYAPGRYDYWGQGTQVTVSS,low polyreactivity
4,QVQLVESGGGLVQEGGSLRLSCAASGRIFGTNAMGWYRQAPGKERELVAAISRSGGSTYYADSVKGRFTISRDNAKNTVYLQMNSLKPEDTAVYYCATDGRHTYYYWGQGTQVTVSS,high polyreactivity
5,QVQHEESGGGLVQAGGSLRLSCAASGRTYDPYAMGWYRQAPGKERELVAAISSGGSTNYADSVKGRFTISRDNAKNTVYLQMNSLKPEDTAVYYCGTDSGDGEGDYWGQGSQVTVSS,low polyreactivity
6,QVQLVESGGALVQAGGSLRLSCAASGRIFGVNAIGWYRQAPGKERELVADISSGGSTNYADSVKGRFTISRDNAKNTVYLQMNSLKPEDTAVYYCAARTLRAGYRASGVRRDYWGQGTQVTVSS,high polyreactivity
7,QVQLVESGGGLFQAGGSLRLTCAASGRIFTHYSMGWYRQPPGKEREFVAAISRSGARTYYADSVKGRFTISRDYAKNTVYLQMYSLKREVTSVYYCAKDQVDSPRDRYQKLDFWGQGTQVTVSS,low polyreactivity
8,QVQLVESGGGLVQAGGSLLLSCAASGGTLRYYAMGWYRQAPGKEREFVASISRSGGSTYYADSVKGRFTISRDNAKNTVYLQMNSLKPEDTAVYYCAAYWSPGYTTRRGYWGQGTQVTVSS,high polyreactivity
9,QVHLVESGGGLVQAGGSQRLSCAASGSIFKYYAKAWYRQQPGKERELVATITNGGNTNYADSVYGRFTISRDNPKKTVYLQRNSLKPEDTAVYYCAARLWCKRYSSPTSLQRYDYWRQGTQVTVSS,high polyreactivity
10,QVQLVESGGGLVQAGGSLRLSCAASGRIFYGYTMGWYRQAPGKERELVAAISWSGGSTYYADSVKGRFTISRDNAKNTVYLQLNSLKPEDTAVYYCNAVTLWYIYGWDYYYWGQGTQVTVSS,high polyreactivity
11,QVQLVESGGGLVQAGGSLRLSCAASGLILGSYAMGWYRQAPGKERELVAGISWSGGDTYYADSVKGRFTISRDNAKNTVYLQMNSLKPEDTAVYYCNTGGTFLDWVRRPFGFGYWGQGTQVTVSS,low polyreactivity
12,QVQLVESGGGLVQAGGSLRLSCAASGSILPVYAMGWYRQAPGKERELVAAISVSGGSTRYADSVKGRFTISRDNAKNTVYLQMNSLKPEDTAVYYCAARYRYSYGYWGQGTQVTVSS,high polyreactivity
13,QVQLVESGGGLVQAGGSLRLSCAASGRIFIIYAMGWYRQAPGTEREFVAAITSSGGSTYYADSVKGRFTISRDNAKNTVYLQMNSLKPEDTAVYYSAADSTEYTGDASYIGYDYWGQGTQVTVSS,high polyreactivity
14,QVQLVESGGGLVQAGGSLRLSCAASGIIFPRYTMGSYRQAPGKERELVAAISWRGGRTYYADSVKGRFTISRDNAKNTVYLQMNSLKPEDTAVYYCAAEFVHSYSYAYDYWGQGTQVTVSS,high polyreactivity
15,QVQLVESGGGLVQAGGSLRLTCAASGSIFYYYAMGWYRQATGKERELVAAINSGVSTYYADSVKGRFTISRDNANNTVYLQMNSLKPDDTAVYYCAAPGHNLFGSWFSWTPDTYDYWGQGTQVTVSS,low polyreactivity
16,QVQLVESGGGLVQAGGSLRLSCAASGSIFAYNAMGWYRQAPGKEREFVAAISQSGGRTYYADSVKGRFTISRDNAKNTVYLQMNSLKPEDTAVYYCATDGIRLTRHRDYDYWGQGTQVTVSS,low polyreactivity
17,QVQLVESGGGLVQAGGSLRLSCAASGSTIRGYARGWYRQAPGKEREFVAAITVNGGNTYYAESVKGRFTLSRDNAKNTVYLQMNSLKPEDTEGYYCNVPVTVVKASITEHYYWGQGTQVTVSS,low polyreactivity
18,QVQLVESGGGLVQAGGSLRLSCAASGSIFIRYTLGWYRQAPGKERELVAVISRRGGSTYYADSVKGRFTISRDNAKNTVYLQMNSLNPEDTAVYYCNTTSSVRAPGSGVYYVPGFDYWGQGTQVTVSS,high polyreactivity
19,QVQFVESGGGLVQAGGSLRVSCAASGSTFQGYAMGWSRQAPGKERELVAAISRSGGRTYYADSVKGRFTISRDNAKNTVYLQMNSLKPEDTAVYYCAAEGHELTEGDSWGQGTQVTVSS,low polyreactivity
20,IIPAGGSLRLSCAASGATLIGYTMGWYRQAPGKERELVDAITWGAGSTNYADSVKGRFTISRDNAKNTVYLQMNSLKPEDTAVYDCNADSISDPRYLGEYDYWGQGTQVTVSS,low polyreactivity
21,QVQLVESGGGLVQAGGSLRLSCAASGSTFAGYALGWYRQAPGKERELVADITWSGGSTYYADSVKGRFTISRDNAKNTVYLQMNSLKPEDTAVYYCAAAGYYSDMDYWGQGTQVTVSS,low polyreactivity
22,QVQLVESGGGLVQAGGSLRLSCAASGYTFYENAMGWYRQAPGKERELVAAITSDGSTYYADSVKGRFTISRDNAKNTVYLQMNSLKPEDTAVYYCAVDEAPPELVYWFFTYYYGGQGTQVTVSS,low polyreactivity

row,Sequence,polyreactivity (PSR sort gate)
1,QVQLVESGGGLVRAGGSLRLSCAASGFIFTSYVMGWYRQAPGKERELVAAITSGNSTYYADSVKGRFTISRDNAKNTVYLQMNSLKPEDTAVYYCTADSYHTYYYWYDYWGLGTQVTVSS,low polyreactivity
2,QVQLVESGGGLVQAGGSLRLSCAASGSIFKVNVMGWSRQAPGKERELVAAISRSGGNTYYADSVKGRFTISRDNAKNTVYLQMIILKPEDTGVYYCANDRRYYKAYDYWGQGTRVTVSS,low polyreactivity
3,QVQLVDSGGGLFQAGGSLSLICAASASKYDINAMGRYRQAPGKETELVADISWSGGRTYYADSVKGRFTISRDNAKNTVYLKMNSLKPEETAVYYCNAQDSRFWYAEYDSWGQGTQVTVSS,low polyreactivity
4,QVQLVESGGGLVQAGGSLRLISAASGSIFYRNAMGWYRQAPGKERDLVAAISSDGSTNYADSVKGRFTISRDNAKNTVYLQMNSLKPEDTAVYYCAAPWTQILDFWGQGTQVTVSS,low polyreactivity
5,QVQLVESGGGLVQAGGSLRLSCAASGRIFYTNAMGWYRQAPGKERELVAAISWRGGSTYYADSVKGRFTISRDNAKNTVYFQMNSLKPEDTAVYYCNRYYLSYNYDYWGQGTQVTVSS,high polyreactivity
6,QVQHVESGGGLVQAGGSLRLSCAASGSTIQNNAMGWYRQPPGKERELVAAMNNGGSTNYADSVKGRFTISRDNAKNTVYLQMNSLIPEDSAGYYCNTDRHHADYQWGWPSAFEEFGYWGLGTQVTVSS,low polyreactivity
7,QVQLVDSGGGLVQAGGSLRLSCAASGFTFQRKAMGWYRQATGKERELVAAISKSGGSTYYADSVKARFTISRDNEKNTVYLEMNSLKPEDTAVYYCASTALFSGLTKRYYWGQGTQVTVSS,high polyreactivity
8,QVQLVESGGGLVQAGGSLRLSCAASVGIFIYNAMGWYRQAPGKEREFVAAINISGGNTYYADSVKGRFTISRDNAKNTVFLQMNSLKPEDTGVYYCAARYASCWWIRYYYWGQGTQVTVSS,high polyreactivity
9,QVQLVESCGGLVQAGGSLRLSCAASGFTFLGYAMGWYRQAPGKERELVAAITSGDSTDYADSVKGRFTISRDNAKNTVYLQMNSLKPEDTAVYYCNAELGSAYEYWGQGTQVTVSS,low polyreactivity
10,QVQLVESGGGLVQAGGSLRLSCAASGIIFDGNAMGWYRQAPGKERELVASITSDSSTNYADSVKGRFTISRDNAKNTVYLQMNSLKPEDTAVYYCAADHWIAPRRDYWGQGTQVTVSS,low polyreactivity
11,QVQLEESVGGLVQAGGSLRLSCAASGRIFRGYAMGWYRQAPGKETELVATISAIGGSTYADSVKGRFTISRDNAKNTVYLQKNSLKPEDTAVYYCNVRKVYRYQFRFEYWGQGTQVTVSS,high polyreactivity
12,QVQLVESGGGLVQAGGSLRLSCAASGSIFGGDGMGWYRQAPGKERQLVAAITSGSSTYYADSVKGRFTISRDNAKNTVYLQLNILKPEDTAVYYCAARPYPHSAYEGDYWGRGTQVTVSS,low polyreactivity
13,QVQLVESGGRLVQAGGSLRLSCAASGINFGYYAMGLYRQAPGKEMELVAAINKSGTSTYYADSVKGRFTISRDNAKNTVYLQMNSLKPEDTAVYYCAVDYARDKGYPYGYWGQGTQVTVSS,low polyreactivity
14,QVQLVESGGGLVQAGGSLRLSCAASGRIFYFYTMGWYRQAPGKEREFVAAISDSGDGTYYADSVKGRFTISRDNAKNTVYLQMNSLKPEDTAVYYCAADGTLFSEYYWFFGYHDYWGQGTQVTVSS,high polyreactivity
15,QVQLVESGGGLVQAGGSLRLSCAASGSIFGKYAMGWYRQAPGKERELVAAISRSGSRTFYADSVKGRFTISRDNAKNTVYLQMNSLKPEDTAVYYCNALSGDSYSYYGYDSWGQGTQVTVSS,high polyreactivity
16,QVQLVESGGGLVQAGGSLRLSCAASGFIFEHYAMGWYRQAPGKERELVARISWRGGSTYYGDSVKGRFTISRDNAKNTVYLQMNSLKPEDTAVYYCAKYAHGHKWYGYWGQGTQVTVSS,low polyreactivity
17,QVQLVESGGGLVQAGGSLRLSCAASGSIFYLYTMGWNRQAPGKERELVAAITAISGSTYYADSVKGRFTISRDNAKNTVYLQINSLKPEDTAVYYCAAKYYRHRWQLYNYWGQGTQVTVSS,high polyreactivity
18,QVQLGESGGGLVQAGGSLRLSCAASGIIYKYAMGWYRQAPGQERELVATITWSDCSTYYADSVKGRFTISRDNAKNTVSLQMNSLKPEDTAVYYCAADDYYGYDYWGQGTQVTVSS,low polyreactivity
19,QVQLVESGGGLVQAGGSLRLSCAASGITFWDYAMGWYRQAPGKERELVAGITSRGGSTYYADSVKGRFTISRDNAKNTVYLQMNSLKPADTGVNSCNAYRLHSRRYYYWGQGTQVTVSS,low polyreactivity
20,QVHLVESGGGLVQAGGSLRLSCAASGRNFGTYAMGWYRQAPGKDRELVADISSSGTSTYYADSVKGRFTISRDNAKNTVYLQMNSLKPEDTAVSYCDVVAIDYAYDYYFRLGYDYWGQGTQVSVSS,low polyreactivity
21,QVQLVESGGGLVQAGGSLLLSCAASGFTFWSYAMAWYRQAPRKERELVADISWSGGSTHYADSVKGRFTISRDNAKNTVYLQMNSLKPEDTAVYYCARRFLYPYDHWGQGTQVTVSS,high polyreactivity
